Measured values as given in paper PMC4676782.
Read-outs that look alike come from different tables or passages of the source. Blank lines part the entries; values can stand above or below the molecule they belong to.

What was measured:
[1] = biological target: Human Carboxylesterase 1 (hCES1), wild type, glycosylated (human) (UniProt P23141); assay: SEC; HiLoad 16/60 Superdex 200, 200 mM NaCl, 20 mM Tris-HCl, pH 7.5; molecular weight estimated from globular protein standards
[2] = biological target: Human Carboxylesterase 1 (hCES1), wild type, glycosylated (human) (UniProt P23141); assay: AUC; sedimentation velocity, 20°C, 2, 1.0 and 0.5 mg/mL protein in 20 mM TrisHCl, pH 7.5, 200 mM NaCl, 40,000 rpm; c(S) analysis with SEDFIT
[3] = biological target: hCES1 N79Q (aglycosylated hCES1) (human) (UniProt P23141); assay: SEC; HiLoad 16/60 Superdex 200, 200 mM NaCl, 20 mM Tris-HCl, pH 7.5; molecular weight estimated from globular protein standards
[4] = biological target: hCES1 N79Q (aglycosylated hCES1) (human) (UniProt P23141); assay: AUC; sedimentation velocity, 20°C, 2, 1.0 and 0.5 mg/mL protein in 20 mM TrisHCl, pH 7.5, 200 mM NaCl, 40,000 rpm; c(S) analysis with SEDFIT
[5] = biological target: hCES1 S221A (catalytically inactive mutant) (human) (UniProt P23141); assay: SEC; HiLoad 16/60 Superdex 200, 200 mM NaCl, 20 mM Tris-HCl, pH 7.5; molecular weight estimated from globular protein standards
[6] = biological target: hCES1 S221A (catalytically inactive mutant) (human) (UniProt P23141); assay: AUC; sedimentation velocity, 20°C, 2, 1.0 and 0.5 mg/mL protein in 20 mM TrisHCl, pH 7.5, 200 mM NaCl, 40,000 rpm; c(S) analysis with SEDFIT
[7] = sedimentation velocity analytical ultracentrifugation; conditions: glycan lost; control: glycosylated hCES1
[8] = crystal structure superposition, Cα rmsd; conditions: glycan lost; control: glycosylated hCES1 structure (5a7f)
[9] = N-glycosylation at N79
[10] = size exclusion chromatography; conditions: glycan lost; control: glycosylated hCES1
[11] = 4-NPA hydrolysis, A405, specific activity; conditions: glycan lost; control: glycosylated hCES1
[12] = 4-NPA kinetics, allosteric sigmoidal fit; conditions: glycan lost; control: glycosylated hCES1

stoichiometry N [1]: 3 | stoichiometry N [2]: 3
Molecule: Human Carboxylesterase 1 (hCES1), wild type, glycosylated (from UniProt P23141 18-567) (enzyme)

stoichiometry N [3]: 3 | stoichiometry N [4]: 3
Molecule: hCES1 N79Q (aglycosylated hCES1) (from UniProt P23141 18-567) (enzyme)

stoichiometry N [5]: 3 | stoichiometry N [6]: 3
Molecule: hCES1 S221A (catalytically inactive mutant) (from UniProt P23141 18-567) (enzyme)

B1: Human Carboxylesterase 1 (hCES1): N79Q (protein)
parent chain: MWLRAFILATLSASAAWGHPSSPPVVDTVHGKVLGKFVSLEGFAQPVAIFLGIPFAKPPLGPLRFTPPQPAEPWSFVKNATSYPPMCTQDPKAGQLLSELFTNRKENIPLKLSEDCLYLNIYTPADLTKKNRLPVMVWIHGGGLMVGAASTYDGLALAAHENVVVVTIQYRLGIWGFFSTGDEHSRGNWGHLDQVAALRWVQDNIASFGGNPGSVTIFGESAGGESVSVLVLSPLAKNLFHRAISESGVALTSVLVKKGDVKPLAEQIAITAGCKTTTSAVMVHCLRQKTEEELLETTLKMKFLSLDLQGDPRESQPLLGTVIDGMLLLKTPEELQAERNFHTVPYMVGINKQEFGWLIPMQLMSYPLSEGQLDQKTAMSLLWKSYPLVCIAKELIPEATEKYLGGTDDTVKKKDLFLDLIADVMFGVPSVIVARNHRDAGAPTYMYEFQYRPSFSSDMKPKTVIGDHGDELFSVFGAPFLKEGASEEEIRLSKMVMKFWANFARNGNPNGEGLPHWPEYNQKEGYLQIGANTQAAQKLKDKEVAFWTNLFAKKAVEKPPQTEHIEL
oligomerisation [7]: no change | structure or conformation, other: rmsd to control [8]: 0.47 Å | enzymatic_activity [9]: no change, specific activity 73 (hCES1) vs 98 (N79Q) µmol min-1 μg-1; Vmax 9.25 +/- 1.30 vs 10.92 +/- 2.01 μMmin-1; h 1.46 vs 1.57 | expression_or_secretion [9]: no change, 39 mg/L (N79Q, transient HEK293T) vs 64 mg/L (hCES1, stable HEK293 Gnt1-/-) | oligomerisation [9]: no change, trimer, apparent molecular weight 152 kDa | structure_or_conformation [9]: no change, rmsd 0.47 Å (vs hCES1) and 0.3 Å (vs S221A) for all Cα atoms | oligomerisation [10]: no change | enzymatic_activity, other: specific activity [11]: no change, 98 vs 73, The purified aglycosylated enzyme was found to be more active than glycosylated hCES1 | enzymatic_activity, other: Hill coefficient [12]: no change, 1.57 +/- 0.4 vs 1.46 +/- 0.26 | enzymatic_activity, other: Khalf [12]: no change, 1090 +/- 343.3 vs 1123 +/- 280.2 | enzymatic_activity, other: Vmax [12]: no change, 10.92 +/- 2.01 vs 9.25 +/- 1.30
